From publication PMC9222203, “A Robust Assay to Monitor Ataxin-3 Amyloid Fibril Assembly” (Cells, 2022)

Key:
[1] = biological target: the molecule itself; assay: switchSENSE; His-tagged protein (500 nM) captured on NTA3-functionalised DNA nanolevers; the same protein as analyte at 3.75-15 uM; PBS pH 7.5, 1 mM TCEP, 37 C; static measurement mode; global mono-exponential fits; self-association
[2] = biological target: the molecule itself

B1: Ataxin-3 Josephin domain (domain or fragment, human, UniProt P54252-2 1-180, looked up)
chain: MESIFHEKQEGSLCAQHCLNNLLQGEYFSPVELSSIAHQLDEEERMRMAEGGVTSEDYRTFLQQPSGNMDDSGFFSIQVISNALKVWGLELILFNSPEYQRLRIDPINERSFICNYKEHWFTVRKLGKQWFNLNSLLTGPELISDTYLALFLAQLQQEGYSIFVVKGDLPDCEADQLLQM
notes: Josephin domain of human ataxin-3 (UniProt P54252-2); A TEV site lies downstream of the His tag; no cleavage described; captured by its His tag in switchSENSE; also called Atx3 JD; JD; source: E. coli BL21(DE3)-SI, purified (Ni2+ IMAC, Sephacryl S-300 SEC); not shown: His6, N-terminal, kept
binding result [1]: binds
Kd [2]: 4.6 µM
